Data: IntAct's records for PubMed 19822759

Target: sc23a_mouse Sec23a (UniProt Q01405)
Sequence (Q01405 whole entry): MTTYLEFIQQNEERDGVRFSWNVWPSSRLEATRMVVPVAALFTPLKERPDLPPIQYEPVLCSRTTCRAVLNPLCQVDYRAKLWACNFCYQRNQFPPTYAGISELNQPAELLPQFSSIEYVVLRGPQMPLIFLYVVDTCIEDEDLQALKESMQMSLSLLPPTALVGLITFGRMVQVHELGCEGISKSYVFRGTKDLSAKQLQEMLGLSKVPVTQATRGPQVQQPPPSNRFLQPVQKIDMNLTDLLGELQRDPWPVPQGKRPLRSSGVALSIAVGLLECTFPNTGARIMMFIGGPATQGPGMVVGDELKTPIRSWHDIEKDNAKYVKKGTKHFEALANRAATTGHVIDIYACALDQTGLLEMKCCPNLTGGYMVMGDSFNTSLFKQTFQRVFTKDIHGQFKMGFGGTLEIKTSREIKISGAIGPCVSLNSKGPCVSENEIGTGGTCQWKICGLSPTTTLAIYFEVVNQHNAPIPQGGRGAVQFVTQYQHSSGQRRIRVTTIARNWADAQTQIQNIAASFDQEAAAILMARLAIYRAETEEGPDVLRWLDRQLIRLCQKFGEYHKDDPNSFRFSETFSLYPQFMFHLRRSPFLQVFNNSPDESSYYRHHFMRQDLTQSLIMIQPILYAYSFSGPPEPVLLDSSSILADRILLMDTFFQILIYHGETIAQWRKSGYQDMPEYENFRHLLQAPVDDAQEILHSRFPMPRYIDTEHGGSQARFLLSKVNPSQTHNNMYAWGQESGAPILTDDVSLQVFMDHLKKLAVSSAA

effect of a mutation on the interaction: disrupting interaction
Substance: Small COPII coat GTPase SAR1A (Homo sapiens), Q9NR31 T39N
